Results reported in patent US20100215682A1.

Tests used:
[1] = biological target: HBsAg-gp120 hybrid virus-like particles, gp120 89.6 with loop C deletion (424-432 …, beta 20-21 loop) (hepatitis B virus; HIV-1 strain 89.6); test: ELISA, half maximal binding compared, gp120-HBsAg particles coated on the plate
[2] = biological target: HBsAg-gp120 hybrid virus-like particles, gp120 89.6 with loop C deletion (424-432 …, beta 20-21 loop) (hepatitis B virus; HIV-1 strain 89.6); test: ELISA, gp120-HBsAg particles coated on the plate; mean of six experiments
[3] = biological target: HBsAg-gp120 hybrid virus-like particles, gp120 89.6 with loop C deletion (424-432 …, beta 20-21 loop) (hepatitis B virus; HIV-1 strain 89.6); test: ELISA, gp120-HBsAg particles coated on the plate

Row | Substance | shift in apparent affinity relative to 89.6 wild type [1] [fold] | fold increase of ELISA peak OD against 89.6 wild type [2] [fold] | fold increase of binding against 89.6 wild type [3] [fold] | peak OD as percent of the IIIB value (% of the IIIB value) [3]
1 | monoclonal F105 (antibody) | > 100 | 7.1 | > 10 | –
2 | monoclonal IgG1 b12 (antibody) | – | 2.6 | 3 | 80 to 100
